According to PMC10711807:

Molecular target: TOLLIP, recombinant from bacteria, biotinylated (human), Q9H0E2
Experiment: BLI
Details: remark: other sources report otherwise

B1: IRAK1, recombinant from bacteria, P51617 1-712 (enzyme)
chain: MAGGPGPGEPAAPGAQHFLYEVPPWVMCRFYKVMDALEPADWCQFAALIVRDQTELRLCERSGQRTASVLWPWINRNARVADLVHILTHLQLLRARDIITAWHPPAPLPSPGTTAPRPSSIPAPAEAEAWSPRKLPSSASTFLSPAFPGSQTHSGPELGLVPSPASLWPPPPSPAPSSTKPGPESSVSLLQGARPFPFCWPLCEISRGTHNFSEELKIGEGGFGCVYRAVMRNTVYAVKRLKENADLEWTAVKQSFLTEVEQLSRFRHPNIVDFAGYCAQNGFYCLVYGFLPNGSLEDRLHCQTQACPPLSWPQRLDILLGTARAIQFLHQDSPSLIHGDIKSSNVLLDERLTPKLGDFGLARFSRFAGSSPSQSSMVARTQTVRGTLAYLPEEYIKTGRLAVDTDTFSFGVVVLETLAGQRAVKTHGARTKYLKDLVEEEAEEAGVALRSTQSTLQAGLAADAWAAPIAMQIYKKHLDPRPGPCPPELGLGLGQLACCCLHRRAKRRPPMTQVYERLEKLQAVVAGVPGHSEAASCIPPSPQENSYVSSTGRAHSGAAPWQPLAAPSGASAQAAEQLQRGPNQPVESDESLGGLSAALRSWHLTPSCPLDPAPLREAGCPQGDTAGESSWGSGPGSRPTAVEGLALGSSASSSSEPPQIIINPARQKMVQKLALYEDGALDSLQLLSSSSLPGLGLEQDRQGPEESDEFQS
modifications: here or on the partner: biotin (biotinylated TOLLIP; site not told)
  Kd: 91.5 nM
